Experimental data as given in article doi:10.1101/714097 (bioRxiv, 2019).
Like-named read-outs stand apart in the source and are kept apart here.

Assays:
cryo-EM structure [1] = target: the molecule itself; test: cryo-EM structure
cryo-EM structure [2] = target: the molecule itself; test: cryo-EM structure; remark: listed apart in the source

Row | Protein | stoichiometry N (cryo-EM structure [1]) | stoichiometry N (cryo-EM structure [2])
1 | InvG (natural protein) SEKIPVTGSGFVAKDDSLRTFFDAMALQLKEPVIVSKMAARKKITGNFEFHDPNALLEKLSLQLGLIWYFDGQAIYIYDASEMRNAVVSLRNVSLNEFNNFLKRSGLYNKNYPLRGDNRKGTFYVSGPPVYVDMVVNAATMMDKQNDGIELGRQKIGVMRLNNTFVGDRTYNLRDQKMVIPGIATAIERLLQGEEQPLGNIVSSEPPAMPAFSANGEKGKAANYAGGMSLQEALKQNAAAGNIKIVAYPDTNSLLVKGTAEQVHFIEMLVKALDVAKRHVELSLWIVDLNKSDLERLGTSWSGSITIGDKLGVSLNQSSISTLDGSRFIAAVNALEEKKQATVVSRPVLLTQENVPAIFDNNRTFYTKLIGERNVALEHVTYGTMIRVLPRFSADGQIEMSLDIEDGNDKTPQSDTTTSVDALPEVGRTLISTIARVPHGKSLLVGGYTRDANTDTVQSIPFLGKLPLIGSLFRYSSKNKSNVVRVFMIEPKEIVDPLTPDASESVNNILKQSGAWSGDDKLQKWVRVYLDRGQEAIK | 16 | 15
2 | PrgH (natural protein) METSKEKTITSPGPYIVRLLNSSLNGCEFPLLTGRTLFVVGQSDALTASGQLPDIPADSFFIPLDHGGVNFEIQVDTDATEIILHELKEGNSESRSVQLNTPIQVGELLILIRPESEPWVPEQPEKLETSAKKNEPRFKNGIVAALAGFFILGIGTVGTLWILNSPQRQAAELDSLLGQEKERFQVLPGRDKMLYVAAQNERDTLWARQVLARGDYDKNARVINENEENKRISIWLDTYYPQLAYYRIHFDEPRKPVFWLSRQRNTMSKKELEVLSQKLRALMPYADSVNITLMDDVTAAGQAEAGLKQQALPYSRRNHKGGVTFVIQGALDDVEILRARQFVDSYYRTWGGRYVQFAIELKDDWLKGRSFQYGAEGYIKMSPGHWYFPSPL | 24 | 23
3 | SpaP (natural protein) MGNDISLIALLAFSTLLPFIIASGTCFVKFSIVFVMVRNALGLQQIPSNMTLNGVALLLSMFVMWPIMHDAYVYFEDEDVTFNDISSLSKHVDEGLDGYRDYLIKYSDRELVQFFENAQLKRQYGEETETVKRDKDEIEKPSIFALLPAYALSEIKSAFKIGFYLYLPFVVVDLVVSSVLLALGMMMMSPVTISTPIKLVLFVALDGWTLLSKGLILQYMDIAT | 5 | 
4 | PrgK (natural protein) CKDKDLLKGLDQEQANEVIAVLQMHNIEANKIDSGKLGYSITVAEPDFTAAVYWIKTYQLPPRPRVEIAQMFPADSLVSSPRAEKARLYSAIEQRLEQSLQTMEGVLSARVHISYDIDAGENGRPPKPVHLSALAVYERGSPLAHQISDIKRFLKNSFADVDYDNISVVLSERSDAQLQAPGTPVKRNSFATSWIVLIILLSVMSAGFGVWYYKNHYARNKKGITADDKAKSSNE | 24 | 23
5 | SpaQ (natural protein) MDDLVFAGNKALYLVLILSGWPTIVATIIGLLVGLFQTVTQLQEQTLPFGIKLLGVCLCLFLLSGWYGEVLLSYGRQVIFLALAKG | 4 | 
